Patent publication US11278600B2, “Human alpha-galactosidase variants” (Codexis, Inc., priority 2014, dated 2022)

How the values were obtained:
Assay type in all cases: biochemical
[1] = HTP-analysis of supernatants pretreated with acid (MUGal hydrolysis); details: challenge at pH 4.2; activity of the variant/activity of Rd2BB (SEQ ID NO: 10); yeast supernatant
Procedure, shortened: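 MUGal hydrolysis was tracked by fluorescence (Ex 355 nm, Em 448 nm) after a 30-180 min reaction at 37° C. in pH 4.8 McIlvaine/citrate buffer, stopped with 1 M sodium carbonate. Beforehand, yeast (INVSc1) culture supernatants carrying GLA variants were held 1-3 h at 37° C. in acidic McIlvaine buffer, pH 3.3-4.3.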

[2] = HTP-analysis of supernatants pretreated with base (MUGal hydrolysis); details: challenge at pH 7.6; activity of the variant/activity of Rd2BB (SEQ ID NO: 10); yeast supernatant
Procedure, shortened: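 GLA variants secreted from yeast INVSc1; culture supernatants pre-incubated with McIlvaine buffer pH 7.0–8.2 or 200 mM bicarbonate pH 9.1–9.7 at 37° C. for 1–18 h. Residual activity: MUGal (4 mM stock) hydrolysis at pH 4.3–4.8, 37° C., 30–180 min, carbonate quench; fluorescence Ex 355/Em 448 nm.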

[3] = HTP-analysis of yeast culture supernatants, no challenge (MUGal hydrolysis); details: activity of the variant/activity of Rd2BB (SEQ ID NO: 10), yeast supernatant
Procedure, shortened: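 GLA variants expressed in yeast INVSc1, secreted into SD-Ura broth over 66-84 h at 30° C; clarified supernatants tested without challenge. Supernatant mixed with McIlvaine buffer pH 4.8 and 2 mM MUGal (citrate/KCl, pH 4.6), 37° C for 30-180 min, carbonate-quenched, fluorescence Ex 355/Em 448 nm.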

B1: 199 (protein)
chain: LDNGLARTPTMGWLHWERFMCNLDCQEEPDSCISEKLFMEMAELMVSEGWKDAGYEYLCIDDCWMAPQRDSEGRLQADPQRFPHGIRQLANYVHSKGLKLGIYADVGNKTCAGFPGSFGYYDIDAQTFADWGVDLLKFDGCYCDSLENLADGYKHMSLALNRTGRSIVYSCEWPLYMWPFQKPNYTEIRQYCNHWRNFADIDDSWASIKSILDWTSFNQERIVDVAGPGGWNDPDMLVIGNFGLSWNQQVTQMALWAIMAAPLFMSNDLRHISPQAKALLQDKDVIAINQDPLGKQGYQLRQGDNFEVWERPLSGLAWAVAMINRQEIGGPRSYTIAVASLGKGVACNPGCFITQLLPVKRKLGFYEWSSRLRSHINPTGTVLLQLENTMQMSKDLLL
modifications: Synthetic Polypeptide sequence of Variant No. 199 of mature Human GLA
[1]
  Relative Activity of GLA Variants After Challenge at pH 4.2: ++ (++ = 1.5 to 2.5 relative activity over Rd2BB (SEQ ID NO: 10))
[2]
  Relative Activity of GLA Variants After Challenge at pH 7.6: ++ (++ = 1.5 to 2.5 relative activity over Rd2BB (SEQ ID NO: 10))
[3]
  Relative Activity of GLA Variants After No Challenge (NC): ++ (++ = 1.5 to 2.5 relative activity over Rd2BB (SEQ ID NO: 10))

B2: 202 (protein)
chain: LDNGLARTPTMGWLHWERFMCNLDCQEEPDSCISEKLFMEMAELMVSEGWKDAGYEYLAIDDCWMAPQRDSEGRLQADPQRFPHGIRQLANYVHSKGLKLGIYADVGNKTCAGFPGSFGYYDIDAQTFADWGVDLLKFDGCYCDSLENLADGYKHMSLALNRTGRSIVYSCEWPLYMWPFQKPNYTEIRQYCNHWRNFADIDDSWASIKSILDWTSFNQERIVDVAGPGGWNDPDMLVIGNFGLSWNQQVTQMALWAIMAAPLFMSNDLRHISPQAKALLQDKDVIAINQDPLGKQGYQLRQGDNFEVWERPLSGLAWAVAMINRQEIGGPRSYTIAVASLGKGVACNPACFITQLLPVKRKLGFYEWTSRLRSHINPTGTVLLQLENTMQMSKDLLL
modifications: Synthetic Polypeptide sequence of Variant No. 202 of mature Human GLA
[1]
  Relative Activity of GLA Variants After Challenge at pH 4.2: + (+ = 0.5 to 1.5 relative activity over Rd2BB (SEQ ID NO: 10))
[2]
  Relative Activity of GLA Variants After Challenge at pH 7.6: + (+ = 0.5 to 1.5 relative activity over Rd2BB (SEQ ID NO: 10))
[3]
  Relative Activity of GLA Variants After No Challenge (NC): + (+ = 0.5 to 1.5 relative activity over Rd2BB (SEQ ID NO: 10))

B3: 204 (protein)
chain: LDNGLARTPTMGWLHWERFMCNLDCQEEPDSCISEKLFMEMAELMVSEGWKDAGYEYLCIDDCWMAPQRDSEGRLQADPQRFPHGIRQLANYVHSKGLKLGIYADVGNKTCAGFPGSFGYYDIDAQTFADWGVDLLKFDGCYCDSLENLADGYKHMSLALNRTGRSIVYSCEWPLYMWPFQKPNYTEIRQYCNHWRNFADIDDSWASIKSILDWTSFNQERIVDVAGPGGWNDPDMLVIGNFGLSWNQQVTQMALWAIMAAPLFMSNDLRHISPQAKALLQDKDVIAINQDPLGKQGYQLRQGDNFEVWERPLSGLAWAVAMINRQEIGGPRSYTIAVASLGKGVACNPACFITQLLPVKRKLGFYDWTSRLRSHINPTGTVLLQLENTMQMSKDLLL
modifications: Synthetic Polypeptide sequence of Variant No. 204 of mature Human GLA
[1]
  Relative Activity of GLA Variants After Challenge at pH 4.2: + (+ = 0.5 to 1.5 relative activity over Rd2BB (SEQ ID NO: 10))
[2]
  Relative Activity of GLA Variants After Challenge at pH 7.6: + (+ = 0.5 to 1.5 relative activity over Rd2BB (SEQ ID NO: 10))
[3]
  Relative Activity of GLA Variants After No Challenge (NC): + (+ = 0.5 to 1.5 relative activity over Rd2BB (SEQ ID NO: 10))

B4: 205 (protein)
chain: LDNGLARTPTMGWLHWERFMCNLDCQEEPDSCISEKLFMEMAELMVSEGWKDAGYEYLCIDDCWMAPQRDSEGRLQADPQRFPHGIRQLANYVHSKGLKLGIYADVGNKTCAGFPGSFGYYDIDAQTFADWGVDLLKFDGCYCDSLENLADGYKHMSLALNRTGRSIVYSCEWPLYMWPFQKPNYTEIRQYCNHWRNFADIDDSWASIKSILDWTSFNQERIVDVAGPGGWNDPDMLVIGNFGLSWNQQVTQMALWAIMAAPLFMSNDLRHISPQAKALLQDKDVIAINQDPLGKQGYQLRQGDNFEVWERPLSGLAWAVAMINRQEIGGPRSYTIAVASLGKGVACNPACFITQLLPVKRKLGFYDWDSRLRSHINPTGTVLLQLENTMQMSLKDLL
modifications: Synthetic Polypeptide sequence of Variant No. 205
[1]
  Relative Activity of GLA Variants After Challenge at pH 4.2: ++ (++ = 1.5 to 2.5 relative activity over Rd2BB (SEQ ID NO: 10))
[2]
  Relative Activity of GLA Variants After Challenge at pH 7.6: ++ (++ = 1.5 to 2.5 relative activity over Rd2BB (SEQ ID NO: 10))
[3]
  Relative Activity of GLA Variants After No Challenge (NC): ++ (++ = 1.5 to 2.5 relative activity over Rd2BB (SEQ ID NO: 10))

B5: 203 (protein)
chain: LDNGLARTPTMGWLHWERFMCNLDCQEEPDSCISEKLFMEMAELMVSEGWKDAGYEYLCIDDCWMAPQRDSEGRLQADPQRFPHGIRQLANYVHSKGLKLGIYADVGNKTCAGFPGSFGYYDIDAQTFADWGVDLLKFDGCYCDSLENLADGYKHMSLALNRTGRSIVYSCEWPLYMWPFQKPNYTEIRQYCNHWRNFADIDDSWASIKSILDWTSFNQERIVDVAGPGGWNDPDMLVIGNFGLSWNQQVTQMALWAIMAAPLFMSNDLRHISPQAKALLQDKDVIAINQDPLGKQGYQLRQGDNFEVWERPLSGLAWAVAMINRQEIGGPRSYTIAVASLGKGVACNPACFITQLLPVKRKLGFYAWDSRLRSHINPTGTVLLQLENTMQMSKDLLL
modifications: Synthetic Polypeptide sequence of Variant No. 203 of mature Human GLA
[1]
  Relative Activity of GLA Variants After Challenge at pH 4.2: ++ (++ = 1.5 to 2.5 relative activity over Rd2BB (SEQ ID NO: 10))
[2]
  Relative Activity of GLA Variants After Challenge at pH 7.6: +++ (+++ = >2.5 relative activity over Rd2BB (SEQ ID NO: 10))
[3]
  Relative Activity of GLA Variants After No Challenge (NC): ++ (++ = 1.5 to 2.5 relative activity over Rd2BB (SEQ ID NO: 10))

B6: 200 (protein)
chain: LDNGLARTPTMGWLHWERFMCNLDCQEEPDSCISEKLFMEMAELMVSEGWKDAGYEYLCIDDCWMAPQRDSEGRLQADPQRFPHGIRQLANYVHSKGLKLGIYADVGNKTCAGFPGSFGYYDIDAQTFADWGVDLLKFDGCYADSLENLADGYKHMSLALNRTGRSIVYSCEWPLYMWPFQKPNYTEIRQYCNHWRNFADIDDSWASIKSILDWTSFNQERIVDVAGPGGWNDPDMLVIGNFGLSWNQQVTQMALWAIMAAPLFMSNDLRHISPQAKALLQDKDVIAINQDPLGKQGYQLRQGDNFEVWERPLSGLAWAVAMINRQEIGGPRSYTIAVASLGKGVACNPACFITQLLPVKRKLGFYEWTSRLRSHINPTGTVLLQLENTMQMSKDLLL
modifications: Synthetic Polypeptide sequence of Variant No. 200 of mature Human GLA
[1]
  Relative Activity of GLA Variants After Challenge at pH 4.2: + (+ = 0.5 to 1.5 relative activity over Rd2BB (SEQ ID NO: 10))
[2]
  Relative Activity of GLA Variants After Challenge at pH 7.6: + (+ = 0.5 to 1.5 relative activity over Rd2BB (SEQ ID NO: 10))
[3]
  Relative Activity of GLA Variants After No Challenge (NC): + (+ = 0.5 to 1.5 relative activity over Rd2BB (SEQ ID NO: 10))

B7: 206 (protein)
chain: LDNGLARTPTMGWLHWERFMCNLDCQEEPDSCISEKLFMEMAELMVSEGWKDAGYEYLCIDDCWMAPQRDSEGRLQADPQRFPHGIRQLANYVHSKGLKLGIYADVGNKTCAGFPGSFGYYDIDAQTFADWGVDLLKFDGCYCDSLENLADGYKHMSLALNRTGRSIVYSCEWPLYMWPFQKPNYTEIRQYCNHWRNFADIDDSWASIKSILDWTSFNQERIVDVAGPGGWNDPDMLVIGNFGLSWNQQVTQMALWAIMAAPLFMSNDLRHISPQAKALLQDKDVIAINQDPLGKQGYQLRQGDNFEVWERPLSGLAWAVAMINRQEIGGPRSYTIAVASLGKGVACNPACFITQLLPVKRKLGFYNWTSRLRSHINPTGTVLLQLENTMQMSLKDLL
modifications: Synthetic Polypeptide sequence of Variant No. 206
[1]
  Relative Activity of GLA Variants After Challenge at pH 4.2: +++ (+++ = >2.5 relative activity over Rd2BB (SEQ ID NO: 10))
[2]
  Relative Activity of GLA Variants After Challenge at pH 7.6: +++ (+++ = >2.5 relative activity over Rd2BB (SEQ ID NO: 10))
[3]
  Relative Activity of GLA Variants After No Challenge (NC): +++ (+++ = >2.5 relative activity over Rd2BB (SEQ ID NO: 10))

B8: 201 (protein)
chain: LDNGLARTPTMGWLHWERFMCNLDCQEEPDSCISEKLFMEMAELMVSEGWKDAGYEYLCIDDCWMAPQRDSEGRLQADPQRFPHGIRQLANYVHSKGLKLGIYADVGNKTCAGFPGSFGYYDIDAQTFADWGVDLLKFDGCYTDSLENLADGYKHMSLALNRTGRSIVYSCEWPLYMWPFQKPNYTEIRQYCNHWRNFADIDDSWASIKSILDWTSFNQERIVDVAGPGGWNDPDMLVIGNFGLSWNQQVTQMALWAIMAAPLFMSNDLRHISPQAKALLQDKDVIAINQDPLGKQGYQLRQGDNFEVWERPLSGLAWAVAMINRQEIGGPRSYTIAVASLGKGVACNPACFITQLLPVKRKLGFYEWTSRLRSHINPTGTVLLQLENTMQMSKDLLL
modifications: Synthetic Polypeptide sequence of Variant No. 201 of mature Human GLA
[1]
  Relative Activity of GLA Variants After Challenge at pH 4.2: + (+ = 0.5 to 1.5 relative activity over Rd2BB (SEQ ID NO: 10))
[2]
  Relative Activity of GLA Variants After Challenge at pH 7.6: + (+ = 0.5 to 1.5 relative activity over Rd2BB (SEQ ID NO: 10))
[3]
  Relative Activity of GLA Variants After No Challenge (NC): + (+ = 0.5 to 1.5 relative activity over Rd2BB (SEQ ID NO: 10))
